The text below walks through data of patent publication US20090035300A1 (published 2009).

Substitutions are numbered along the chain they refer to. In names and notes the source's numbering stands.

This test concerns the target FLAG-CtBP1 (full-length CtBP1 in pFLAG-CMV-2), expressed in 293 HEK cells (UniProt Q13363 1-440). As to the kind of experiment: co-immunoprecipitation from transfected 293 HEK cells. As for the experimental part:
293 HEK cells (8×10⁵) were plated in 6-well plates and transfected with 10 μl Lipofectamine 2000 (Invitrogen Life Technologies) and 1 μg of DNA. Cells were harvested one day after transfection. THP-1 cells (4×10⁶) were brought to a final volume of 0.8 ml and electroporated with 20 μg of DNA in total. Electroporation took place in a 0.2-cm cuvette (Bio-Rad) at 300 V and 960 μF. Day 6 immature human Mo-DCs were transduced with Ad5fib35hDC-SCRIPT-green fluorescence protein (GFP) at a multiplicity of infection of 1000 as described previously (Crucell, Leiden, the Netherlands) (Havenga, M J E et al. (2002) J. Virol. 76, 4612-4620.).
Whole cell lysates were prepared in 1% SDS standard lysis buffer. Equal amounts of protein were separated by SDS-PAGE electrophoresis and proteins were transferred to Protran Nitrocellulose Transfer Membrane (Schleicher and Schuell BioScience). The following primary antibodies were used; Mouse anti-GFP (0.04 μg/ml; Roche), mouse anti-myc (0.2 μg/ml; Invitrogen Life Technologies), M2 mouse anti-FLAG 1 μg/ml (Sigma-Aldrich), mouse anti-Epstein-Barr Virus (anti-EBV) mAb, BZLF1 Protein, ZEBRA, clone BZ.1 (DakoCytomation) in combination with a second HRP conjugated Goat anti-Mouse IgG (H+L) antibody (0.4 μg/ml; Pierce). Inmmunoprecipitation was performed in a standard RIPA/1% Triton X-100 buffer for 3 h at 4° C., using protein G beads. […]

B1: YFP fusion of the acidic region of DC-SCRIPT with both motifs mutated (L593A and L648A) (pEYFP-C1), expressed in 293 HEK cells (other)
chain: EQEEPFDASQKRRAKVPVFQSDGESAQGSHCHEEEEEDNCYEVEPYSPGLAPQSQQLCTPEDASTKSEHAPEVLEEACKEEKEDASKGEWEKRSKGDLGAEGGQE
notes: also called Ac/double mut; not shown: yellow fluorescence protein (YFP) encoded by pEYFP-C1
Regarding B1, the binding result was “no binding”.

B2: YFP fusion of the acidic region of DC-SCRIPT with the first motif mutated (L593A) (pEYFP-C1), expressed in 293 HEK cells (other)
chain: B1 chain with A63L
notes: also called Ac/mut1; not shown: yellow fluorescence protein (YFP) encoded by pEYFP-C1
Turning to B2, the binding result is “no binding”.
